B1: RTP4 (parent)
chain: TYWEHWTSQGQVRMRLFGQRCQKC
B2: KCNK9 (parent)
chain: CFITLTTIGFGDYVALQTKGALQK

Variants of: B1
Assay: protein stability index of a GFP-peptide fusion (GPS, HEK-293T) (PSI 1-6); higher = more stable
Details: c terminus: a fixed tail appended
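Further: lentivirally expressed fusions sorted by FACS into six bins by GFP to DsRed ratio, PSI derived from sequencing read proportions per bin multiplied by bin number.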

Question: For TYWEHWTSQGQVRMRLFGQMCQKC [R20M], which protein stability index is on record?
Answer: 2.69

Question: With TYWEHWTSQGQVRMRLFGQNCQKC [R20N] as the variant, how does the protein stability index read?
Answer: 1.34

Question: With TYWEHWTSQGQVRMRLFGQPCQKC [R20P] as the variant, how does the protein stability index read?
Answer: 1.78

Question: Which protein stability index does the source give for TYWEHWTSQGQVRMRLFGQQCQKC [R20Q] here?
Answer: 1.24

Question: For TYWEHWTSQGQVRMRLFGQSCQKC [R20S], which protein stability index is on record?
Answer: 1.65

Question: With TYWEHWTSQGQVRMRLFGQTCQKC [R20T] as the variant, how does the protein stability index read?
Answer: 2.22

Question: Which protein stability index does the source give for TYWEHWTSQGQVRMRLFGQWCQKC [R20W] here?
Answer: 2.49

Question: For TYWEHWTSQGQVRMRLFGQYCQKC [R20Y], which protein stability index is on record?
Answer: 1.97

Question: Which protein stability index does the source give for TYWEHWTSQGQVRMRLFGQRAQKC [C21A] here?
Answer: 1.94

Question: For TYWEHWTSQGQVRMRLFGQRDQKC [C21D], which protein stability index is on record?
Answer: 2.75

Question: For TYWEHWTSQGQVRMRLFGQREQKC [C21E], which protein stability index is on record?
Answer: 2.46

Question: Which protein stability index does the source give for TYWEHWTSQGQVRMRLFGQRFQKC [C21F] here?
Answer: 1.39

Question: With TYWEHWTSQGQVRMRLFGQRGQKC [C21G] as the variant, how does the protein stability index read?
Answer: 2.46

Question: Which protein stability index does the source give for TYWEHWTSQGQVRMRLFGQRHQKC [C21H] here?
Answer: 2.23

Question: Which protein stability index does the source give for TYWEHWTSQGQVRMRLFGQRIQKC [C21I] here?
Answer: 1.98

Question: Which protein stability index does the source give for TYWEHWTSQGQVRMRLFGQRKQKC [C21K] here?
Answer: 2.45

Question: With TYWEHWTSQGQVRMRLFGQRLQKC [C21L] as the variant, how does the protein stability index read?
Answer: 2.4

Question: Which protein stability index does the source give for TYWEHWTSQGQVRMRLFGQRMQKC [C21M] here?
Answer: 1.7

Question: With TYWEHWTSQGQVRMRLFGQRNQKC [C21N] as the variant, how does the protein stability index read?
Answer: 2.15

Question: With TYWEHWTSQGQVRMRLFGQRPQKC [C21P] as the variant, how does the protein stability index read?
Answer: 3.25

Question: With TYWEHWTSQGQVRMRLFGQRQQKC [C21Q] as the variant, how does the protein stability index read?
Answer: 2.12

Question: For TYWEHWTSQGQVRMRLFGQRRQKC [C21R], which protein stability index is on record?
Answer: 2.4

Question: With TYWEHWTSQGQVRMRLFGQRTQKC [C21T] as the variant, how does the protein stability index read?
Answer: 1.78

Question: With TYWEHWTSQGQVRMRLFGQRYQKC [C21Y] as the variant, how does the protein stability index read?
Answer: 1.81

Question: For TYWEHWTSQGQVRMRLFGQRCAKC [Q22A], which protein stability index is on record?
Answer: 2.06

Question: With TYWEHWTSQGQVRMRLFGQRCEKC [Q22E] as the variant, how does the protein stability index read?
Answer: 1.09

Question: Which protein stability index does the source give for TYWEHWTSQGQVRMRLFGQRCHKC [Q22H] here?
Answer: 1.69

Question: For TYWEHWTSQGQVRMRLFGQRCIKC [Q22I], which protein stability index is on record?
Answer: 1.52

Question: For TYWEHWTSQGQVRMRLFGQRCKKC [Q22K], which protein stability index is on record?
Answer: 1.61

Question: Which protein stability index does the source give for TYWEHWTSQGQVRMRLFGQRCLKC [Q22L] here?
Answer: 2.36

Question: With TYWEHWTSQGQVRMRLFGQRCNKC [Q22N] as the variant, how does the protein stability index read?
Answer: 1.71

Question: With TYWEHWTSQGQVRMRLFGQRCPKC [Q22P] as the variant, how does the protein stability index read?
Answer: 1.68

Question: For TYWEHWTSQGQVRMRLFGQRCRKC [Q22R], which protein stability index is on record?
Answer: 1.92

Question: With TYWEHWTSQGQVRMRLFGQRCSKC [Q22S] as the variant, how does the protein stability index read?
Answer: 1.33

Question: Which protein stability index does the source give for TYWEHWTSQGQVRMRLFGQRCTKC [Q22T] here?
Answer: 1.94

Question: With TYWEHWTSQGQVRMRLFGQRCVKC [Q22V] as the variant, how does the protein stability index read?
Answer: 1.36

Question: For TYWEHWTSQGQVRMRLFGQRCWKC [Q22W], which protein stability index is on record?
Answer: 4.47

Question: For TYWEHWTSQGQVRMRLFGQRCQAC [K23A], which protein stability index is on record?
Answer: 2.52

Question: Which protein stability index does the source give for TYWEHWTSQGQVRMRLFGQRCQCC [K23C] here?
Answer: 1.63

Question: Which protein stability index does the source give for TYWEHWTSQGQVRMRLFGQRCQDC [K23D] here?
Answer: 1.79

Question: Which protein stability index does the source give for TYWEHWTSQGQVRMRLFGQRCQEC [K23E] here?
Answer: 1.79

Question: With TYWEHWTSQGQVRMRLFGQRCQGC [K23G] as the variant, how does the protein stability index read?
Answer: 1.15

Question: For TYWEHWTSQGQVRMRLFGQRCQHC [K23H], which protein stability index is on record?
Answer: 1.1

Question: For TYWEHWTSQGQVRMRLFGQRCQPC [K23P], which protein stability index is on record?
Answer: 1.65

Question: With TYWEHWTSQGQVRMRLFGQRCQQC [K23Q] as the variant, how does the protein stability index read?
Answer: 1.92

Question: With TYWEHWTSQGQVRMRLFGQRCQRC [K23R] as the variant, how does the protein stability index read?
Answer: 1.4

Question: For TYWEHWTSQGQVRMRLFGQRCQSC [K23S], which protein stability index is on record?
Answer: 1.48

Question: For TYWEHWTSQGQVRMRLFGQRCQTC [K23T], which protein stability index is on record?
Answer: 1.07

Question: For TYWEHWTSQGQVRMRLFGQRCQYC [K23Y], which protein stability index is on record?
Answer: 1.67

Question: With TYWEHWTSQGQVRMRLFGQRCQKA [C24A] as the variant, how does the protein stability index read?
Answer: 2.31

Question: Which protein stability index does the source give for TYWEHWTSQGQVRMRLFGQRCQKD [C24D] here?
Answer: 2.53

Question: For TYWEHWTSQGQVRMRLFGQRCQKE [C24E], which protein stability index is on record?
Answer: 2.34

Question: For TYWEHWTSQGQVRMRLFGQRCQKF [C24F], which protein stability index is on record?
Answer: 2.78

Question: With TYWEHWTSQGQVRMRLFGQRCQKG [C24G] as the variant, how does the protein stability index read?
Answer: 2.2

Question: With TYWEHWTSQGQVRMRLFGQRCQKH [C24H] as the variant, how does the protein stability index read?
Answer: 2.07

Question: With TYWEHWTSQGQVRMRLFGQRCQKK [C24K] as the variant, how does the protein stability index read?
Answer: 3.24

Question: For TYWEHWTSQGQVRMRLFGQRCQKL [C24L], which protein stability index is on record?
Answer: 2.2

Question: With TYWEHWTSQGQVRMRLFGQRCQKM [C24M] as the variant, how does the protein stability index read?
Answer: 2.29

Question: For TYWEHWTSQGQVRMRLFGQRCQKN [C24N], which protein stability index is on record?
Answer: 2.22

Question: Which protein stability index does the source give for TYWEHWTSQGQVRMRLFGQRCQKP [C24P] here?
Answer: 1.69

Question: Which protein stability index does the source give for TYWEHWTSQGQVRMRLFGQRCQKQ [C24Q] here?
Answer: 2.28

Question: Which protein stability index does the source give for TYWEHWTSQGQVRMRLFGQRCQKR [C24R] here?
Answer: 2.29

Question: Which protein stability index does the source give for TYWEHWTSQGQVRMRLFGQRCQKT [C24T] here?
Answer: 2.41

Question: For TYWEHWTSQGQVRMRLFGQRCQKV [C24V], which protein stability index is on record?
Answer: 2.03

Question: Which protein stability index does the source give for TYWEHWTSQGQVRMRLFGQRCQKW [C24W] here?
Answer: 1.54

Question: Which protein stability index does the source give for TYWEHWTSQGQVRMRLFGQRCQKY [C24Y] here?
Answer: 2.15

Variants of: B2
Assay: as above
Details: c terminus: a fixed tail appended

Question: For AFITLTTIGFGDYVALQTKGALQK [C1A], which protein stability index is on record?
Answer: 2.27

Question: Which protein stability index does the source give for DFITLTTIGFGDYVALQTKGALQK [C1D] here?
Answer: 1.57

Question: With EFITLTTIGFGDYVALQTKGALQK [C1E] as the variant, how does the protein stability index read?
Answer: 2.02

Question: Which protein stability index does the source give for GFITLTTIGFGDYVALQTKGALQK [C1G] here?
Answer: 1.26

Question: For HFITLTTIGFGDYVALQTKGALQK [C1H], which protein stability index is on record?
Answer: 3.02

Question: For IFITLTTIGFGDYVALQTKGALQK [C1I], which protein stability index is on record?
Answer: 3.52

Question: For KFITLTTIGFGDYVALQTKGALQK [C1K], which protein stability index is on record?
Answer: 2.05

Question: For LFITLTTIGFGDYVALQTKGALQK [C1L], which protein stability index is on record?
Answer: 4.01

Question: For MFITLTTIGFGDYVALQTKGALQK [C1M], which protein stability index is on record?
Answer: 3.33

Question: For NFITLTTIGFGDYVALQTKGALQK [C1N], which protein stability index is on record?
Answer: 2.2

Question: For PFITLTTIGFGDYVALQTKGALQK [C1P], which protein stability index is on record?
Answer: 1.66

Question: For QFITLTTIGFGDYVALQTKGALQK [C1Q], which protein stability index is on record?
Answer: 2.53

Question: Which protein stability index does the source give for RFITLTTIGFGDYVALQTKGALQK [C1R] here?
Answer: 2.57

Question: With SFITLTTIGFGDYVALQTKGALQK [C1S] as the variant, how does the protein stability index read?
Answer: 2.4

Question: With TFITLTTIGFGDYVALQTKGALQK [C1T] as the variant, how does the protein stability index read?
Answer: 3.37

Question: For WFITLTTIGFGDYVALQTKGALQK [C1W], which protein stability index is on record?
Answer: 3.09

Question: Which protein stability index does the source give for CAITLTTIGFGDYVALQTKGALQK [F2A] here?
Answer: 1.82

Question: With CCITLTTIGFGDYVALQTKGALQK [F2C] as the variant, how does the protein stability index read?
Answer: 2.23

Question: With CDITLTTIGFGDYVALQTKGALQK [F2D] as the variant, how does the protein stability index read?
Answer: 1.99

Question: With CEITLTTIGFGDYVALQTKGALQK [F2E] as the variant, how does the protein stability index read?
Answer: 1.02

Question: With CGITLTTIGFGDYVALQTKGALQK [F2G] as the variant, how does the protein stability index read?
Answer: 2.02

Question: With CHITLTTIGFGDYVALQTKGALQK [F2H] as the variant, how does the protein stability index read?
Answer: 2.03

Question: For CIITLTTIGFGDYVALQTKGALQK [F2I], which protein stability index is on record?
Answer: 2.62

Question: With CKITLTTIGFGDYVALQTKGALQK [F2K] as the variant, how does the protein stability index read?
Answer: 2.4

Question: Which protein stability index does the source give for CLITLTTIGFGDYVALQTKGALQK [F2L] here?
Answer: 3.17

Question: Which protein stability index does the source give for CMITLTTIGFGDYVALQTKGALQK [F2M] here?
Answer: 1.43

Question: Which protein stability index does the source give for CNITLTTIGFGDYVALQTKGALQK [F2N] here?
Answer: 1.61

Question: For CPITLTTIGFGDYVALQTKGALQK [F2P], which protein stability index is on record?
Answer: 2.5

Reference: the supplement of paper PMC10567573
